From paper PMC7993993

Target: T1, His6-PomZ (M. xanthus) (UniProt Q1DEM0)
T1 sequence: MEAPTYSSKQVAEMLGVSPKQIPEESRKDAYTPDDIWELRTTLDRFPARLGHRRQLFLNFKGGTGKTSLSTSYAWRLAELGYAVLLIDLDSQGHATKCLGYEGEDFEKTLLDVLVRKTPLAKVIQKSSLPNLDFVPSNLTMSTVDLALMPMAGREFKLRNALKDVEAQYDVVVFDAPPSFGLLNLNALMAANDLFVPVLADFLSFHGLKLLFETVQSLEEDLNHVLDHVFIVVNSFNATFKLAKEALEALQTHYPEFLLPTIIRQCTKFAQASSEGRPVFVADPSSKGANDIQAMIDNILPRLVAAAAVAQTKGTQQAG

MKKAFEQNVSRAKPRLRLGALT [PomX^NPEP peptide]
His6-PomZ ATPase activity (NADH-coupled assay, 1 mM ATP, 32°C) with DNA, PomX^NPEP peptide up to 15 µM, 4 µM His6-PomZ: 27 ATP hr^−1
